Results on one molecule are retold here after patent US20200230115A1, “METHODS OF TREATING INFLUENZA-ASSOCIATED VIRAL PNEUMONIA” (priority 2017, published 2020).

Where two headings read alike, the source gives them in different places.

For assay [1], the system named is cytokines and chemokines. Briefly: Multiplex analysis of inflammatory mediators in BALF and serum. The assay is classed as in vivo, DBA/2J mice.
The subject of assay [2] is IL-6, TNFα, KC, MCP-1. The assay is classed as in vivo.
Assay [3] relates to AECII. The assay can be described thus: Flow cytometry of dispersed lung cells (pro SP-C, Ki67, IAV-NP) after in vivo treatment. Also noted: species or system DBA/2J mice.
For assay [4], the system named is AECII. Format: cell-based, mice.

B1: KGF: keratinocyte growth factor, a potent pulmonary epithelial mitogen; cognate receptor FGFR2 (protein, UniProt P21781 32-194, looked up)
Fibroblast growth factor 7: CNDMTPEQMATNVNCSSPERHTRSYDYMEGGDIRVRRLFCRTQWYLRIDKRGKVKGTQEMKNNYNIMEIRTVAVGIVAIKGVESEFYLAMNKEGKLYAKKECNEDCNFKELILENHYNTYASAKWTHNGGEMFVALNQKGIPVRGKKTKKEQKTAHFLPMAIT
Take B1: the “BAL IP10, MCP-5, TNFα, MIG, IL-6, MCP-1, G-CSF, M-CSF, IFNγ responses relative to PBS/IAV” value in assay [1] (BALF, 72 h after IAV with 5 mg/kg KGF i.t.) is reported as “modestly augmented”. For the same molecule, the “serum inflammatory response to IAV (especially IP10, TNFα, MCP-1, IFNγ)” value in assay [1] (serum, IAV with 5 mg/kg KGF i.t.) is listed as “augmented the inflammatory response”. Besides, in assay [2] (KGF treatment alone, 48 and 72 h postchallenge), the “TNFα increase, KGF alone vs naive controls” value is on record as “two- to threefold increases”. In addition, the “cytokine responses, KGF alone (other than TNFα)” value in assay [2] (KGF treatment alone, no IAV, any point) is reported as “no effect”. Besides, in assay [2] (whole-lung homogenates, 48 and 72 h, KGF coadministration with IAV), the “enhancement of IAV-induced IL-6, TNFα, KC, MCP-1 levels” value is 10-50%. Moreover, the “fold increase in percentage of AECII proliferating vs PBS” value in assay [3] (48 h after i.t. KGF 5 mg/kg) is “more than sevenfold”. Moreover, the “percentage of AECII proliferating based on Ki67 staining” value in assay [3] (48 h after i.t. KGF 5 mg/kg, PBS-only mice 2%) turned out to be 14%. In addition, in assay [3] (KGF 24, 48 or 120 h before 50,000 particles i.t. IAV, peak), the “percentage of AECII infected (IAV-NP), time course” value is on record as “peaked in dispersed lung cells from mice that had been pretreated with KGF 48 h before infection”. Further, the “mean channel fluorescence of IAV-NP (viral burden per cell), time course” value in assay [3] (KGF 24, 48 or 120 h before IAV, peak) is given as “peaking in cells harvested at 48 h after KGF”. The “percentage of AECII infected (IAV-NP)” value in assay [3] (KGF 120 h before inoculum) is given as “remained near PBS control levels”. In assay [3] (mouse, in vivo), the “mean channel fluorescence of IAV-NP (viral burden per cell)” value was “remaining close to PBS control levels”; the “percentage of AECII infected vs PBS control mice” value is reported as “significantly greater”; the “percentage of AECII proliferating (Ki67)” value is “remaining similar to PBS control levels”; the “percentage of AECII proliferating (Ki67), time course” value is recorded as “peaking in cells isolated from mice that had been dosed with KGF 48 h before PBS challenge”. In addition, in assay [4], the “MCF per cell for IAV-NP” value was “returning to baseline”; the “mean fluorescence intensity of IAV-NP staining, Ki67 high vs Ki67 low” value is “greater in the Ki67 high (proliferating) than the Ki67 low (nonproliferating) population”; the “peak in expression of viral protein M1 (Western blot)” value is “occurred in AECII that were isolated 48 h after in vivo KGF challenge”; the “percentage of AECII infected after ex vivo IAV incubation” value is listed as “remained near baseline levels”. In assay [4], the “percentage of AECII infected after ex vivo IAV incubation, time course” value is reported as “highest in cells harvested 48 h after in vivo KGF treatment”; the “percentage of AECII proliferating (Ki67)” value is given as “returned to near baseline”; the “percentage of AECII proliferating (Ki67), time course” value is “peaked at 48 h”. Besides, in assay [4] (ex vivo IAV 18 h, peak), the “MCF per cell for IAV-NP, time course” value is given as “peaking in cells harvested at 48 h post KGF”.
